Values belong to the binder of their own block, whether it stands above or below them.
B4: DI-KS(AG(f0) SEED)-IL-2 heavy chain with DI-KS light chain (antibody)
heavy: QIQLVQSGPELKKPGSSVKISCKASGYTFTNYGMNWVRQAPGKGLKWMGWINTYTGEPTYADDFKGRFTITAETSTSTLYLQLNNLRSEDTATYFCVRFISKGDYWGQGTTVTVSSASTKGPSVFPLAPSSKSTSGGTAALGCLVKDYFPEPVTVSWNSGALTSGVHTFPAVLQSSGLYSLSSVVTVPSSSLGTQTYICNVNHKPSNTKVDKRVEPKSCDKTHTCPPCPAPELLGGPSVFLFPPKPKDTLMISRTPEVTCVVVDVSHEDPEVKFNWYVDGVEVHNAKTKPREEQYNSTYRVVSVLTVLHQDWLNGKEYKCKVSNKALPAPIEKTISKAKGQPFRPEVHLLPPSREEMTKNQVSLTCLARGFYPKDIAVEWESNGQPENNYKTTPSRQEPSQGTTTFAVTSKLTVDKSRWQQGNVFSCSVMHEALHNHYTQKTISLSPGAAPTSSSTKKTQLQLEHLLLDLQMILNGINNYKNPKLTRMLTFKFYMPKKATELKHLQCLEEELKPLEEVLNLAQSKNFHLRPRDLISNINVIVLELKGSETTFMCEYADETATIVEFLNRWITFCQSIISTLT
light: QIVLTQSPASLAVSPGQRATITCSASSSVSYILWYQQKPGQPPKPWIFDTSNLASGFPSRFSGSGSGTSYTLTINSLEAEDAATYYCHQRSGYPYTFGGGTKVEIKRTVAAPSVFIFPPSDEQLKSGTASVVCLLNNFYPREAKVQWKVDNALQSGNSQESVTEQDSKDSTYSLSSTLTLSKADYEKHKVYACEVTHQGLSSPVTKSFNRGEC
notes: also called heavy chain-IL2

How the values were obtained:
[1] = target: T1, Fc(AG(s0) SEED)-IL2 (human); test: co-expression in NS/0 cells, SDS-PAGE (figure legend)
T1 construct: It was put together from the cloning scheme (Ngo MIV/Sma I fragment exchange in the pdCs Fc-IL2 vector); also called "Surface" AG SEED-IL-2; AG SURF

[2] = target: the molecule itself; test: co-expression with Fc(AG(s0) SEED)-IL2 in NS/0 cells, non-reducing SDS-PAGE (homodimer)
[3] = target: T2, Fc(AG(f0) SEED)-IL2; test: co-expression in NS/0 cells, SDS-PAGE (figure legend)
T2 construct: also called "Full" AG SEED-IL-2; Fc(AG SEED)-IL2

[4] = target: the molecule itself; test: co-expression with Fc(AG(f0) SEED)-IL2 in NS/0 cells, non-reducing SDS-PAGE (homodimer)
[5] = target: the molecule itself; test: co-expression in mammalian cells, non-reducing SDS-PAGE (homodimer)
[6] = target: B4; test: co-expression in mammalian cells, non-reducing SDS-PAGE (heterodimer)
[7] = target: the molecule itself; test: co-expression of both heavy chains and the light chain in mammalian cells, non-reducing SDS-PAGE

B1: Fc(GA(s0) SEED) (designed binder)
chain: EPKSSDKTHTCPPCPAPELLGGPSVFLFPPKPKDTLMISRTPEVTCVVVDVSHEDPEVKFNWYVDGVEVHNAKTKPREEQYNSTYRVVSVLTVLHQDWLNGKEYKCKVSNKALPAPIEKTISKAKGQPREPQVYTLPPPSEELALNNQVTLTCLVKGFYPSDIAVEWESNGQPEPREKYLTWAPVLDSDGSFFLYSILRVDASRWQQGNVFSCSVMHEALHNHYTQKSLSLSPGK
notes: It was put together from the cloning scheme: the Ngo MIV/Sma I fragment for the SEED replaces that of CH3 in the pdCs Fc vector; also called "Surface" GA SEED; GA SURF
- binding result [1]: binds
- binding result [2]: binds

Binder: B4
- binding result [7]: no binding

More lines, main results first:

- binding result [3]: binds
B2: Fc(GA(f0) SEED) (designed binder)
chain: EPKSSDKTHTCPPCPAPELLGGPSVFLFPPKPKDTLMISRTPEVTCVVVDVSHEDPEVKFNWYVDGVEVHNAKTKPREEQYNSTYRVVSVLTVLHQDWLNGKEYKCKVSNKALPAPIEKTISKAKGQPREPQVYTLPPPSEELALNELVTLTCLVKGFYPSDIAVEWLQGSQELPREKYLTWAPVLDSDGSFFLYSILRVAAEDWKKGDTFSCSVMHEALHNHYTQKSLDRSPGK
notes: also called "Full" GA SEED; Fc(GA SEED)
- binding result [4]: binds

- binding result [6]: binds
B3: DI-KS(GA(f0) SEED) heavy chain with DI-KS light chain (antibody)
heavy: QIQLVQSGPELKKPGSSVKISCKASGYTFTNYGMNWVRQAPGKGLKWMGWINTYTGEPTYADDFKGRFTITAETSTSTLYLQLNNLRSEDTATYFCVRFISKGDYWGQGTTVTVSSASTKGPSVFPLAPSSKSTSGGTAALGCLVKDYFPEPVTVSWNSGALTSGVHTFPAVLQSSGLYSLSSVVTVPSSSLGTQTYICNVNHKPSNTKVDKRVEPKSCDKTHTCPPCPAPELLGGPSVFLFPPKPKDTLMISRTPEVTCVVVDVSHEDPEVKFNWYVDGVEVHNAKTKPREEQYNSTYRVVSVLTVLHQDWLNGKEYKCKVSNKALPAPIEKTISKAKGQPREPQVYTLPPPSEELALNELVTLTCLVKGFYPSDIAVEWLQGSQELPREKYLTWAPVLDSDGSFFLYSILRVAAEDWKKGDTFSCSVMHEALHNHYTQKSLDRSPGK
light: QIVLTQSPASLAVSPGQRATITCSASSSVSYILWYQQKPGQPPKPWIFDTSNLASGFPSRFSGSGSGTSYTLTINSLEAEDAATYYCHQRSGYPYTFGGGTKVEIKRTVAAPSVFIFPPSDEQLKSGTASVVCLLNNFYPREAKVQWKVDNALQSGNSQESVTEQDSKDSTYSLSSTLTLSKADYEKHKVYACEVTHQGLSSPVTKSFNRGEC
notes: It has anti-EpCAM V regions, human IgG1 CH1 and CH2, and human Ckappa; also called antibody heavy chain (no IL-2)
- binding result [5]: binds

Reference: patent US20070287170A1 (Merck KGaA, published 2007)
